Assay results: patent US20250084167A1 (ZENAS BIOPHARMA, published 2025)

Target: T1, human CD19 (human, UniProt P15391 20-556)
T1 construct: CD19 on B cells of healthy subjects and patients (receptor occupancy in clinical studies); also called human B-cell restricted surface antigen CD19
T1 sequence: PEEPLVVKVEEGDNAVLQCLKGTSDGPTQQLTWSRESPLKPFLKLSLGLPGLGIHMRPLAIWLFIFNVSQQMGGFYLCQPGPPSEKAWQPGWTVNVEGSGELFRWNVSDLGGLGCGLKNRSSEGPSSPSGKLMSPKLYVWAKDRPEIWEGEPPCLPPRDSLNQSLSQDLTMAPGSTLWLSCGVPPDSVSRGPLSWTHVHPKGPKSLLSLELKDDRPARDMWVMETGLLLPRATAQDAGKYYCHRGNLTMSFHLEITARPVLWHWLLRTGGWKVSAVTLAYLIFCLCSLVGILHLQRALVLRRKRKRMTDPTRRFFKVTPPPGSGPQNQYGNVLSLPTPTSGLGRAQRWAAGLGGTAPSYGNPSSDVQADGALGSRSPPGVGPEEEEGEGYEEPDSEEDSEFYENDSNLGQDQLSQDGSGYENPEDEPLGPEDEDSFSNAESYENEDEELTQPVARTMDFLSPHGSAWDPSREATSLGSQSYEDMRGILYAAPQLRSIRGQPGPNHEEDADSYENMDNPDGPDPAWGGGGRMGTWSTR
Assay: population PK/PD model of CD19 receptor occupancy (direct response, sigmoidal Emax) against plasma obexelimab concentration, fitted to data of 4 clinical studies (healthy subjects, RA and IgG4-RD patients); in vivo plasma concentration for half-maximal CD19 receptor occupancy, population PK/PD model fit

B1: Obexelimab (antibody, human IgG1, kappa, V domains shown)
VH: EVQLVESGGGLVKPGGSLKLSCAASGYTFTSYVMHWVRQAPGKGLEWIGYINPYNDGTKYNEKFQGRVTISSDKSISTAYMELSSLRSEDTAMYYCARGTYYYGTRVFDYWGQGTLVTVSS
VL: DIVMTQSPATLSLSPGERATLSCRSSKSLQNVNGNTYLYWFQQKPGQSPQLLIYRMSNLNSGVPDRFSGSGSGTEFTLTISSLEPEDFAVYYCMQHLEYPITFGAGTKLEIKR
notes: Humanized IgG1 kappa; also called XmAb5871; anti-CD19 antibody
With B1 the EC50 was 0.0745 µg/mL.
